Test results: article PMC5797146 (Scientific Reports, 2018)
Substitutions are numbered along the chain they refer to. Names and notes keep the numbering of the source.

B1: A26.8 VHH Q101K (VHH)
VHH: QVKLEESGGGLVQAGGSLRLSCAASERTFSRYPVAWFRQAPGAEREFVAVISSTGTSTYYADSVKGRFTISRDNAKVTVYLQMNNLKREDTAVYFCAVNSKRTRLQDPNEYDYWGQGTQVTVSS
notes: source: E. coli TG1, periplasmic extract, purified (IMAC, SEC)
B2: A26.8 VHH D107R (VHH)
VHH: B1 VHH with K101Q, D107R
notes: as for B1
B3: A26.8 VHH T58K (VHH)
VHH: B1 VHH with T58K, K101Q
notes: as for B1
B4: A26.8 VHH Q101K, T103M (VHH)
VHH: B1 VHH with T103M
notes: as for B1
B5: A26.8 VHH R104W (VHH)
VHH: B1 VHH with K101Q, R104W
notes: as for B1
B6: A26.8 VHH D107N (VHH)
VHH: B1 VHH with K101Q, D107N
notes: as for B1
B7: A26.8 VHH T56R, Q101K, T103R (VHH)
VHH: B1 VHH with T56R, T103R
notes: also called lead triple mutant; source: E. coli TG1, periplasmic extract, purified (IMAC, SEC)
B8: A26.8 VHH Q106W (VHH)
VHH: B1 VHH with K101Q, Q106W
notes: as for B1
B9: A26.8 VHH T103R (VHH)
VHH: B1 VHH with K101Q, T103R
notes: as for B1
B10: A26.8 VHH Q101K, T103R (VHH)
VHH: B1 VHH with T103R
notes: as for B1
B11: A26.8 VHH T56R, Q101K, T103K (VHH)
VHH: B1 VHH with T56R, T103K
notes: as for B1
B12: A26.8 VHH T56R, T103M (VHH)
VHH: B1 VHH with T56R, K101Q, T103M
notes: as for B1
B13: A26.8 VHH S53R (VHH)
VHH: B1 VHH with S53R, K101Q
notes: as for B1
B14: A26.8 VHH T103K (VHH)
VHH: B1 VHH with K101Q, T103K
notes: as for B1
B15: A26.8 VHH T56R, T103R (VHH)
VHH: B1 VHH with T56R, K101Q, T103R
notes: also called lead double mutant; source: E. coli TG1, periplasmic extract, purified (IMAC, SEC)
B16: A26.8 VHH T56R (VHH)
VHH: B1 VHH with T56R, K101Q
notes: as for B1
B17: A26.8 VHH T103W (VHH)
VHH: B1 VHH with K101Q, T103W
notes: as for B1
B18: A26.8 VHH T56I (VHH)
VHH: B1 VHH with T56I, K101Q
notes: as for B1
B19: A26.8 VHH T56R, Q101K (VHH)
VHH: B1 VHH with T56R
notes: as for B1
B20: A26.8 VHH Q106L (VHH)
VHH: B1 VHH with K101Q, Q106L
notes: as for B1
B21: A26.8 VHH E110Q (VHH)
VHH: B1 VHH with K101Q, E110Q
notes: as for B1
B22: A26.8 VHH T54R (VHH)
VHH: B1 VHH with T54R, K101Q
notes: as for B1
B23: A26.8 VHH T54Y (VHH)
VHH: B1 VHH with T54Y, K101Q
notes: as for B1
B24: A26.8 VHH T54W (VHH)
VHH: B1 VHH with T54W, K101Q
notes: as for B1
B25: A26.8 VHH N109R (VHH)
VHH: B1 VHH with K101Q, N109R
notes: as for B1
B26: A26.8 VHH D107Y (VHH)
VHH: B1 VHH with K101Q, D107Y
notes: as for B1
B27: A26.8 VHH T56R, Q101K, T103M (VHH)
VHH: B1 VHH with T56R, T103M
notes: as for B1
B28: A26.8 VHH T103M (VHH)
VHH: B1 VHH with K101Q, T103M
notes: as for B1
B29: A26.8 VHH Q106Y (VHH)
VHH: B1 VHH with K101Q, Q106Y
notes: as for B1
B30: A26.8 VHH Q106F (VHH)
VHH: B1 VHH with K101Q, Q106F
notes: as for B1
B31: A26.8 VHH Q101K, T103K (VHH)
VHH: B1 VHH with T103K
notes: as for B1
B32: A26.8 VHH T56R, T103K (VHH)
VHH: B1 VHH with T56R, K101Q, T103K
notes: as for B1

Target: T1, Clostridium difficile toxin A (Clostridioides difficile …, UniProt P16154)
T1 construct: also called TcdA
Assay: SPR
Details: both partners purified

| Binder | Kd [nM] | koff [s⁻¹] | kon [M⁻¹ s⁻¹] |
| --- | --- | --- | --- |
| B1 | 7.6 | 0.02 | 2.7e+06 |
| B2 | 19 | 0.026 | 1.4e+06 |
| B3 | 13.5 | 0.033 | 2.5e+06 |
| B4 | 8 | 0.027 | 3.3e+06 |
| B5 | 165 | 0.055 | 300000 |
| B6 | 21.3 | 0.04 | 1.9e+06 |
| B7 | 2 | 0.024 | 1.23e+07 |
| B8 | 1480 | – | – |
| B9 | 5.3 | 0.014 | 2.7e+06 |
| B10 | 4.2 | 0.023 | 5.5e+06 |
| B11 | 3.2 | 0.047 | 1.47e+07 |
| B12 | 4.8 | 0.03 | 6.4e+06 |
| B13 | 224 | – | – |
| B14 | 8.3 | 0.02 | 2.5e+06 |
| B15 | 2.3 | 0.019 | 8.3e+06 |
| B16 | 6.2 | 0.027 | 4.8e+06 |

| Binder | Kd [nM] | koff [s⁻¹] | kon [M⁻¹ s⁻¹] |
| --- | --- | --- | --- |
| B17 | 16.3 | 0.036 | 2.4e+06 |
| B18 | 13.6 | 0.026 | 1.9e+06 |
| B19 | 4.1 | 0.05 | 1.24e+07 |
| B20 | 612 | – | – |
| B21 | 33.6 | 0.07 | 2.1e+06 |
| B22 | 13.2 | 0.044 | 3.6e+06 |
| B23 | 38.9 | 0.069 | 1.8e+06 |
| B24 | 35 | 0.056 | 1.6e+06 |
| B25 | 13.9 | 0.027 | 2e+06 |
| B26 | 44 | 0.071 | 1.6e+06 |
| B27 | 2.9 | 0.03 | 1.04e+07 |
| B28 | 13.7 | 0.024 | 1.8e+06 |
| B29 | 2320 | – | – |
| B30 | 5130 | – | – |
| B31 | 8.2 | 0.04 | 5e+06 |
| B32 | 3.4 | 0.029 | 8.6e+06 |
